The assay has as its target T1, Seizure-related homolog 6 (SEZ6) (UniProt Q53EL9 20-994, limits assumed).
T1 sequence (looked up): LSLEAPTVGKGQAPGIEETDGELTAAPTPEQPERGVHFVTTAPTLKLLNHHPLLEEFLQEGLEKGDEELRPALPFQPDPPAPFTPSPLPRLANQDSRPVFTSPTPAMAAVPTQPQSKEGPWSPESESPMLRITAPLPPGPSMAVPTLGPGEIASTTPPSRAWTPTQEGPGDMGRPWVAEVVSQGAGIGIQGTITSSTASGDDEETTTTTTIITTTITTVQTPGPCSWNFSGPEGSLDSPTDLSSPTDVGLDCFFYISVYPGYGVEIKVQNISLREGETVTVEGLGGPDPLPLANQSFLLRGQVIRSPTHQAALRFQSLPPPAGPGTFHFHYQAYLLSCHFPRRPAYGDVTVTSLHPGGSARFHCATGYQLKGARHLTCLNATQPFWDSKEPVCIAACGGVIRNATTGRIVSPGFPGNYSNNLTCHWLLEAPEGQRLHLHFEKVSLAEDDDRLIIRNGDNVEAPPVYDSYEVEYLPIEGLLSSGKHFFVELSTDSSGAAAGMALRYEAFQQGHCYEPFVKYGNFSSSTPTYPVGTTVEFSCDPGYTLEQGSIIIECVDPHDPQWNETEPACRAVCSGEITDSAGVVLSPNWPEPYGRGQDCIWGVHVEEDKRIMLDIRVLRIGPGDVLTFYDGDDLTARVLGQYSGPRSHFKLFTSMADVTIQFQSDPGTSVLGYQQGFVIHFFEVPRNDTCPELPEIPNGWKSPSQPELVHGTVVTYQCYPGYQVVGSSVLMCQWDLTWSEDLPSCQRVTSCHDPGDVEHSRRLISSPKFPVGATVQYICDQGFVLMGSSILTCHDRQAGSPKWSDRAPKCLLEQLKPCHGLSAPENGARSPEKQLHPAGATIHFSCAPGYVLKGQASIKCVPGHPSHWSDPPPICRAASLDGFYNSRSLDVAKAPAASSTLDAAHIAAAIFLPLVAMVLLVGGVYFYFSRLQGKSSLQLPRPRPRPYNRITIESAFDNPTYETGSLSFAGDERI
Description: cell-based or functional assay.

B1: ADC-1 (anti-SEZ6 antibody Ab conjugated to TOP1i linker drug LD1, formula (IV), DAR about 6) (antibody, V domains shown)
VH: EVQLVQSGAEVKKPGESLKISCKGSGYSFTSSWINWVRQMPGKGLEWMGRIYPGEGDTNYNGNFEGQVTISADKSISTAYLQWSSLKASDTAMYYCTRGLVMDYWGQGTLVTVSS
VL: EIVLTQSPATLSLSPGERATLSCRASQSVDYNGISYMHWYQQKPGQAPRLLIYAASNVQSGIPARFSGSGSGTDFTLTISSLEPEDFAVYYCQQSIEDPPTFGGGTKVEIKR
modifications: linker drug LD1 (Example 1J, formula (III)) on sulfhydryl groups of cysteine residues after global reduction; positions not given; linker drug LD1 (Example 1J, formula (III)) on sulfhydryl groups of cysteine residues after global reduction; DAR of about 6 over the whole antibody, predominant species n = 6; positions not given
On to B1, for which the “growth inhibitory IC50, CellTiter-Glo cell viability, 10 days, COR-L95 cells (SEZ6 mRNA positive)” value was 0.33 nM; the “growth inhibitory IC50, CellTiter-Glo cell viability, 10 days, NCI-H146 cells (SEZ6 mRNA positive)” value was 0.05 nM; the “growth inhibitory IC50, CellTiter-Glo cell viability, 10 days, NCI-H524 cells (SEZ6 mRNA positive)” value worked out at 0.33 nM; the “growth inhibitory IC50, CellTiter-Glo cell viability, 10 days, NCI-H526 cells (SEZ6 mRNA positive)” value is 0.1 nM. Also, the “growth inhibitory IC50, CellTiter-Glo cell viability, 10 days, NCI-H1963 cells (SEZ6 mRNA positive)” value stood at 4.63 nM and the “growth inhibitory IC50, CellTiter-Glo cell viability, 10 days, row without a cell line label below COR-L95 (taken as a second COR-L95 value)” value worked out at 0.29 nM.

The values above are taken from US20240091374A1 (AbbVie / Abbott, published 2024).
